From PMC10786891, “Massively parallel profiling of RNA-targeting CRISPR-Cas13d” come the findings set out here.

For orientation: Kd means the equilibrium constant for the complex coming apart. Low values mean higher affinity, high ones lower affinity.

First the molecules themselves.
T1: EsCas13d, nuclease-dead (Eubacterium siraeum, UniProt B0MS50, R295A;H300A;R849A;H854A)
T1 sequence: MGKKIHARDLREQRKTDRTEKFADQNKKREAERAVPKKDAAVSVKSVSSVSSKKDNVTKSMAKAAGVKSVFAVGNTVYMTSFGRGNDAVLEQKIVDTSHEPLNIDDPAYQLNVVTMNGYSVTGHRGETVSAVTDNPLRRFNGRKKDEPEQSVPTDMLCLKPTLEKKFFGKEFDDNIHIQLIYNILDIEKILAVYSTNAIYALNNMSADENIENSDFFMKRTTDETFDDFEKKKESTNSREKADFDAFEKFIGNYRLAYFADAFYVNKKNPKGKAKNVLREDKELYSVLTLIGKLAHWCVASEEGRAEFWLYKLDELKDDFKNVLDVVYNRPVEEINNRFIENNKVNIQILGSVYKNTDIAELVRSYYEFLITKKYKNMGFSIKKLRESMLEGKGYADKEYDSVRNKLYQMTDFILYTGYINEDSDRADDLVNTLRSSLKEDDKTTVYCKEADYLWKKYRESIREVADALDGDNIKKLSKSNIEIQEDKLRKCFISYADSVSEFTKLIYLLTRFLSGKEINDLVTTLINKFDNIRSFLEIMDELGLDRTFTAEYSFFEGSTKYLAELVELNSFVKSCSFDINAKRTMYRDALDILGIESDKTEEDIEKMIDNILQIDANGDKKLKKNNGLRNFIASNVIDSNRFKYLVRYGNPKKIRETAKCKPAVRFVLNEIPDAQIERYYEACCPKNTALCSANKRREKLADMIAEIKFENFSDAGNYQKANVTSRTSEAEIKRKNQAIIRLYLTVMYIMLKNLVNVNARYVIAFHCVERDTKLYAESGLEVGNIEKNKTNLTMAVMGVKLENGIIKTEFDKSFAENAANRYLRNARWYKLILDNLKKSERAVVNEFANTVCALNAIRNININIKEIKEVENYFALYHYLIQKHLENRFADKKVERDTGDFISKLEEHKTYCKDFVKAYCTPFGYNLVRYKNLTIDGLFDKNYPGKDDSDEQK

B1: target 1 C7G,C21U (mixed)
RNA 1: CACCCGUGCAAAAAUGCAGGGGUCUAAAACUGAGCGGAUAACCUCUCUAUGG
RNA 2: GGGAAUGGAUCCACAUCUACGAAUUCGUACUAUAGAGAGGUUAUGCGCUCACCGAGAUCGGAAGAGCACACGU
B2: target 1 A1U,A9C (mixed)
RNA 1: CACCCGUGCAAAAAUGCAGGGGUCUAAAACUGAGCGGAUAACCUCUCUAUGG
RNA 2: GGGAAUGGAUCCACAUCUACGAAUUCGUACCAUAGAGAGGUUCUCCGCUCUCCGAGAUCGGAAGAGCACACGU
B3: target 1 insA 3' of 22,insA 3' of 4 (mixed)
RNA 1: CACCCGUGCAAAAAUGCAGGGGUCUAAAACUGAGCGGAUAACCUCUCUAUGG
RNA 2: GGGAAUGGAUCCACAUCUACGAAUUCGUACACAUAGAGAGGUUAUCCGCAUCACCGAGAUCGGAAGAGCACACGU
B4: target 1 C6A,G13U (mixed)
RNA 1: CACCCGUGCAAAAAUGCAGGGGUCUAAAACUGAGCGGAUAACCUCUCUAUGG
RNA 2: GGGAAUGGAUCCACAUCUACGAAUUCGUACCAUAGAGAUGUUAUCAGCUCACCGAGAUCGGAAGAGCACACGU
B5: target 1 insU 3' of 9,insU 3' of 1 (mixed)
RNA 1: CACCCGUGCAAAAAUGCAGGGGUCUAAAACUGAGCGGAUAACCUCUCUAUGG
RNA 2: GGGAAUGGAUCCACAUCUACGAAUUCGUACCAUAGAGAGGUUAUUCCGCUCAUCCGAGAUCGGAAGAGCACACGU
B6: target 1 insG 3' of 14,insU 3' of 13 (mixed)
RNA 1: CACCCGUGCAAAAAUGCAGGGGUCUAAAACUGAGCGGAUAACCUCUCUAUGG
RNA 2: GGGAAUGGAUCCACAUCUACGAAUUCGUACCAUAGAGAGGUGUUAUCCGCUCACCGAGAUCGGAAGAGCACACGU
B7: target 1 insA 3' of 17,insG 3' of 14 (mixed)
RNA 1: CACCCGUGCAAAAAUGCAGGGGUCUAAAACUGAGCGGAUAACCUCUCUAUGG
RNA 2: GGGAAUGGAUCCACAUCUACGAAUUCGUACCAUAGAAGAGGGUUAUCCGCUCACCGAGAUCGGAAGAGCACACGU
B8: target 1 U10G,G15A (mixed)
RNA 1: CACCCGUGCAAAAAUGCAGGGGUCUAAAACUGAGCGGAUAACCUCUCUAUGG
RNA 2: GGGAAUGGAUCCACAUCUACGAAUUCGUACCAUAGAAAGGUGAUCCGCUCACCGAGAUCGGAAGAGCACACGU
B9: target 1 U8C,G12C (mixed)
RNA 1: CACCCGUGCAAAAAUGCAGGGGUCUAAAACUGAGCGGAUAACCUCUCUAUGG
RNA 2: GGGAAUGGAUCCACAUCUACGAAUUCGUACCAUAGAGAGCUUACCCGCUCACCGAGAUCGGAAGAGCACACGU
B10: target 1 insA 3' of 11,insA 3' of 5 (mixed)
RNA 1: CACCCGUGCAAAAAUGCAGGGGUCUAAAACUGAGCGGAUAACCUCUCUAUGG
RNA 2: GGGAAUGGAUCCACAUCUACGAAUUCGUACCAUAGAGAGGUAUAUCCGACUCACCGAGAUCGGAAGAGCACACGU
B11: target 1 G13C,G15C (mixed)
RNA 1: CACCCGUGCAAAAAUGCAGGGGUCUAAAACUGAGCGGAUAACCUCUCUAUGG
RNA 2: GGGAAUGGAUCCACAUCUACGAAUUCGUACCAUAGACACGUUAUCCGCUCACCGAGAUCGGAAGAGCACACGU
B12: target 1 insG 3' of 8,insU 3' of 7 (mixed)
RNA 1: CACCCGUGCAAAAAUGCAGGGGUCUAAAACUGAGCGGAUAACCUCUCUAUGG
RNA 2: GGGAAUGGAUCCACAUCUACGAAUUCGUACCAUAGAGAGGUUAUGCUCGCUCACCGAGAUCGGAAGAGCACACGU
B13: target 1 G5U,C7A (mixed)
RNA 1: CACCCGUGCAAAAAUGCAGGGGUCUAAAACUGAGCGGAUAACCUCUCUAUGG
RNA 2: GGGAAUGGAUCCACAUCUACGAAUUCGUACCAUAGAGAGGUUAUACUCUCACCGAGAUCGGAAGAGCACACGU

For this data set, the target named is T1, EsCas13d, nuclease-dead. In words: crRNA (strand 1, pre-loaded); Mg2+; 40 mM Tris-HCl pH 7.5, 150 mM NaCl, 6 mM MgCl2, 1 mM DTT, 0.1% Tween-20, 0.2 mg/ml BSA; 25 C; 10 min per concentration, then washed. Conditions: tags: His6-TwinStrep-SUMO cleaved; N-terminal SNAP kept (SNAP-Surface 488); label: 3' end held by stalled T7 RNA polymerase.
The molecule B1 came in with a Kd of 6.7 ± 0.31 nM.

Turning to B2, the Kd is 15.4 ± 1.7 nM.

B3 returned a Kd of 7.8 ± 1.1 nM.

In turn, B4 had a dissociation constant (Kd) of 34 ± 4 nM.

In turn, B5 came in with an equilibrium dissociation constant (Kd) of 32 ± 7 nM.

B6 yielded a Kd of 22.8 ± 2.7 nM.

B7 yielded an equilibrium dissociation constant (Kd) of 15.5 ± 0.7 nM.

B8 yielded a Kd of 53 ± 15 nM.

With B9, binding was put at a Kd of 18.1 ± 0.6 nM.

B10 gave a Kd of 8.7 ± 0.4 nM.

Molecule B11 yielded an equilibrium dissociation constant (Kd) of 52 ± 22 nM.

Turning to B12, the equilibrium dissociation constant (Kd) turned out to be 14.1 ± 0.5 nM.

Regarding B13, the dissociation constant (Kd) was 56 ± 9 nM.
